Assay results reported in EP4786496A1 (Nanjing Iaso Biotechnology Co., Ltd., dated 2026).

Legend:
[1] = target: T1, KACTUS-CD19-Fc (Recombinant biotinylated Human CD19 Protein, KACTUS CD2-HE121) (human, UniProt P15391 20-291, biotinylated (site not stated)); experiment: phage ELISA
T1 construct: Bought unrelated antigen; not shown: Fc
T1 sequence (looked up): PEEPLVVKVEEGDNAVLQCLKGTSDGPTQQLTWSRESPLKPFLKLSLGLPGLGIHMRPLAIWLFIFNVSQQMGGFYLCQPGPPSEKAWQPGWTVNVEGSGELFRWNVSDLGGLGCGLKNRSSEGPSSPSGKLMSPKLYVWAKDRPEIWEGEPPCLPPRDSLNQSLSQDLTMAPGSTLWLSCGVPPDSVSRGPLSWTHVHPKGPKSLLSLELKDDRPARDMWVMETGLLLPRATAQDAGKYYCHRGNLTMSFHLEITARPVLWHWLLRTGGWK

[2] = target: T2, Streptavidin (Pierce, 21125) (UniProt P22629 37-163, limits assumed); experiment: phage ELISA
T2 construct: Control antigen of the ELISA; also called SA; control protein SA
T2 sequence (P22629 37-163 limits assumed): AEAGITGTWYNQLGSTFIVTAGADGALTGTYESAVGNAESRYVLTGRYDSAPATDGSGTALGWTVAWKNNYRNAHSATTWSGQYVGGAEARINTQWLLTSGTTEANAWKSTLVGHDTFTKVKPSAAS

[3] = target: T3, ACRO-CD70-his (Biotinylated Human CD27 Ligand ,His,Avitag; ACRObiosystem CDL-H82Q9) (human, UniProt P32970 39-193, limits assumed, biotinylated (Avitag)); experiment: phage ELISA
T3 construct: Bought unrelated antigen; not shown: His tag and Avitag
T3 sequence (looked up): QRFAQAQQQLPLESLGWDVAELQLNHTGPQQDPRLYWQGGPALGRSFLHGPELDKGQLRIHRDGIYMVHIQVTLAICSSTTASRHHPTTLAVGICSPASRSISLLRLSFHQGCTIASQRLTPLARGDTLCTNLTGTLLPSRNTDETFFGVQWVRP

[4] = target: T4, BAFFR-cyno-His (BAF-CM10R, KACTUS) (cynomolgus, UniProt Q96RJ3 7-71 (human entry), limits assumed); experiment: ELISA, antigen coated on plate, anti-human IgG HRP
T4 construct: Bought protein; also called Cyno BAFF-R; cynomolgus BAFF-R; not shown: His tag

[5] = target: T5, BAFFR-mouse-rFc (50353-M31H, Sino) (mouse, UniProt Q9D8D0 1-71); experiment: ELISA, antigen coated on plate, anti-human IgG HRP
T5 construct: Bought protein; also called Mouse BAFF-R; not shown: rFc
T5 sequence: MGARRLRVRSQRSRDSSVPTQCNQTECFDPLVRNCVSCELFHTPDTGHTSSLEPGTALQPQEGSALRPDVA

[6] = target: T6, Recombinant biotinylated Human BAFF-R Protein (KACTUS, BAFF-R-HM401) (human, UniProt Q96RJ3 7-71, limits assumed, biotinylated (site not stated)); experiment: ELISA, antigen coated on plate, anti-human IgG HRP
T6 construct: Bought protein; treated as one product; also called BAFF-R-his-Bio; BAFF-R-Bio-his; not shown: His tag
T6 sequence: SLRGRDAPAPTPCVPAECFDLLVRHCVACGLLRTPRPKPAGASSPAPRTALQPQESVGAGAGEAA

[7] = target: T7, His-tagged human BAFF-R antigen (BAR-H52H3, Acro) (human, UniProt Q96RJ3 7-71, limits assumed); experiment: BLI (ForteBio Octet), His-tagged antigen on HIS1K sensor, antibody in solution
T7 construct: Bought protein used in BLI; not shown: His tag
T7 sequence: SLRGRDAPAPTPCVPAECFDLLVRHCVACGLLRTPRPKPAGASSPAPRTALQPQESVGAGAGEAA

[8] = target: T8, BAFF-R on the surface of BAFF-R-positive cells (K562-BAFF-R, NALM6, RS4, MEC1, JEKO1) (human, UniProt Q96RJ3 1-184); experiment: flow cytometry, phage on K562-BAFF-R and NALM6 cells
T8 construct: The cell line is named under assay or readout of each row; K562-BAFF-R overexpresses BAFF-R; the others are human tumour lines that carry it natively; also called K562-BAFF-R cells; RS4-luc
T8 sequence: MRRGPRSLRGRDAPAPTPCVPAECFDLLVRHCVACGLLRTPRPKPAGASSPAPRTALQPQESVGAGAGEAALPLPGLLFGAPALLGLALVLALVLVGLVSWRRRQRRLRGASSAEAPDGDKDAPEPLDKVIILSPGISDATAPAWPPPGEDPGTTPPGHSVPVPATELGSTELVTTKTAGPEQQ

B1: Clone 1 (monoclonal phage antibody) (scFv, V domains shown)
VH: EVQLVESGAEVKKPGASVKVSCKASGYTFTSYGISWVRQAPGQGLEWMGWISAYNGNTNYAQKLQGRVTMTTDTSTSTAYMELRSLRSDDTAVYYCARNTYYYDSSGYPNDAFDIWGQGTTVTVSS
VL: DIQMTQSPSSLSASVGDRVTITCRASQKISSYLNWYQQKPGKAPKLLIYAASSLQSGVPSRFSGSGSGADFTLTISSLQPEDFATYYCQQSYSPPTTFGGGTKVDIKR
notes: also called 01
B1: no binding [1]; no binding [2]; no binding [3].

B2: Clone 5 monoclonal antibody with Fc comprising S228P/L235E (05VH-hFc PE) (antibody, human IgG4 S228P, V domains shown)
VH: EVQLVESGGGVVQPGRSLRLTCAASGFTFSTSGMYWIRQAPGKGLEWVSYISSSSSTIYYADSVKGRFTISRDNSKNTLYLQMNSLRAEDTAVYYCVTQSCGAGKCYPGVWGQGTTVTVSS
notes: Single-domain VH fused to a human Fc, made in CHOS cells; also called Clone 05; clone 05 monoclonal antibody
Binder B2 has an EC50 [4] of 1.91 nM, an EC50 [5] of 3.4 nM and an EC50 [6] of 0.965 nM. It also gave a Kd [7] of 2.63 nM, a koff [7] of 0.00163 s⁻¹ and a kon [7] of 622000 M⁻¹ s⁻¹.

B3: Clone 5 (monoclonal phage antibody) (VHH)
VHH: EVQLVESGGGVVQPGRSLRLTCAASGFTFSTSGMYWIRQAPGKGLEWVSYISSSSSTIYYADSVKGRFTISRDNSKNTLYLQMNSLRAEDTAVYYCVTQSCGAGKCYPGVWGQGTTVTVSS
notes: also called 05; 05VH
B3: no binding [1]; no binding [2]; no binding [3].

B4: VAY736 positive control phage antibody clone (scFv)
scFv: QVQLQQSGPGLVKPSQTLSLTCAISGDSVSSNSAAWGWIRQSPGRGLEWLGRIYYRSKWYNSYAVSVKSRITINPDTSKNQFSLQLNSVTPEDTAVYYCARYQWVPKIGVFDSWGQGTLVTVSSGGGGSGGGGSGGGGSDIVLTQSPATLSLSPGERATLSCRASQFILPEYLSWYQQKPGQAPRLLIYGSSSRATGVPARFSGSGSGTDFTLTISSLEPEDFAVYYCQQFYSSPLTFGQGTKVEIK
notes: also called VAY736 antibody
B4: binds [8].
